Values quoted from earlier work as cited in US20220017621A1, “Combination Therapy for Cancer” (Merck Patent GmbH, priority 2016, published 2022).

Biological target: TGFβ1 (Homo sapiens, UniProt P01137)
Settings: binding of TGFβ1

TGFβ1, sequence (P01137 279-390 limits assumed, species assumed): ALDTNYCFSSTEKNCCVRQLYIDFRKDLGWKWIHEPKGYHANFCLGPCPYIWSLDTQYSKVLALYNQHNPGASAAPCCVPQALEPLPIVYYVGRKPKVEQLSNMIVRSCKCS

B1: recombinant soluble TGFβRII: recombinant soluble extracellular domain of TGFβRII, from the literature (Lin et al.) (protein, UniProt P37173 23-166, looked up)
extracellular domain: TIPPHVQKSVNNDMIVTDNNGAVKFPQLCKFCDVRFSTCDNQKSCMSNCSITSICEKPQEVCVAVWRKNDENITLETVCHDPKLPYHDFILEDAASPKCIMKEKKKPGETFFMCSCSSDECNDNIIFSEEYNTSNPDLLLVIFQ
modifications: extracellular domain
Kd: 0.2 nM
